Measured values taken from US20090180995A1, “NOVEL ANTICOAGULANT POLYPEPTIDES AND COMPLEX” (National University of Singapore, priority 2005, published 2009).

What was measured:
FVIIa (human) [1] = molecular target: FVIIa (human) (UniProt P08709)
FVIIa (human) [2] = molecular target: FVIIa (human) (UniProt P08709); assay: cell-based or functional assay
FVIIa-sTF (human) [3] = molecular target: FVIIa-sTF (human) (UniProt P08709); assay: cell-based or functional assay
FVIIa-sTF (human) [4] = molecular target: FVIIa-sTF (human) (UniProt P08709); assay: non-competitive inhibition kinetics of FVIIa-sTF amidolytic activity on S-2288

FVIIa (human), sequence (P08709 61-212 limits assumed, chain 1 of 2): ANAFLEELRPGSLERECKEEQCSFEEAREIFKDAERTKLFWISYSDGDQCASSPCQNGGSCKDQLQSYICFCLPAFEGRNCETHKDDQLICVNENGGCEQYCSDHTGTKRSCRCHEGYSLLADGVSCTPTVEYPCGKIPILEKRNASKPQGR
FVIIa (human), sequence (P08709 213-466 limits assumed, chain 2 of 2): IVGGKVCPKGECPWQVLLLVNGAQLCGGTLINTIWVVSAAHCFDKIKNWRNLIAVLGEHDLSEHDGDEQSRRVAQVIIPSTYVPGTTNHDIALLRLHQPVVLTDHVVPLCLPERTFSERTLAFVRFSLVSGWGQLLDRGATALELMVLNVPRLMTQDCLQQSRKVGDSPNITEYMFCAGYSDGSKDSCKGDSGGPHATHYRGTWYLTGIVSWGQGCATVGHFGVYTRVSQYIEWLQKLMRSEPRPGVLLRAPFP
FVIIa-sTF (human), sequence (P08709 61-212 limits assumed, chain 1 of 3): as the sequence (P08709 61-212 limits assumed, chain 1 of 2) above
FVIIa-sTF (human), sequence (P13726 33-251 limits assumed, chain 2 of 3, further chain): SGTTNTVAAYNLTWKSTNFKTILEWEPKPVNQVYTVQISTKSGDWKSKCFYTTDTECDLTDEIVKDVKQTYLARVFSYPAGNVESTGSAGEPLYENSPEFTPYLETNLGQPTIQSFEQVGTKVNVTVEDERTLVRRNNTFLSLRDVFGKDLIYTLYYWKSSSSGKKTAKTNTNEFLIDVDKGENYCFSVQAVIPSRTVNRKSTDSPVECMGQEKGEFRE
FVIIa-sTF (human), sequence (P08709 213-466 limits assumed, chain 3 of 3): as the sequence (P08709 213-466 limits assumed, chain 2 of 2) above

B1: hemextin AB complex (protein)
chain 1: LKCKNKLVPFLSKTCPEGKNLCYKMTMLKMPKIPIKRGCTDACPKSSLLVKVVCCNKDKCN
chain 2: LKCKNKVVPFLKCKNKVVPFLCYKMTLKKVPKIPIKRGCTDACPKSSLLVNVMCCKTDKCN
For B1, the Ka (FVIIa (human) [1]) was 411000 M⁻¹, the ΔG (FVIIa (human) [1]) was -7.54 and the ΔH (FVIIa (human) [1]) was -7.93. For the same binder, the ΔS (FVIIa (human) [1]) was -1.25 cal/M, the IC50, inhibition of FVIIa amidolytic activity in the absence of sTF (FVIIa (human) [2]) was 105 nM and the inhibitory potency towards FVIIa relative to plasma kallikrein (FVIIa (human) [2]) was over 50 times. For the same binder, the IC50, inhibition of FVIIa amidolytic activity in the presence of sTF (FVIIa-sTF (human) [3]) was 100 nM and the Ki (FVIIa-sTF (human) [4]) was 25 nM.
